From PMC10928576, “Cpne7 deficiency induces cellular senescence and premature aging of dental pulp” (Aging Cell, 2023)

Columns and labels:
[1] = tested on: human dental pulp cells (hDPCs); assay: Live-cell imaging of hDPC morphology with or without rCPNE7; type: cell-based; conditions: rCPNE7 100 ng/mL for 24 h, then differentiation media 7 days, vs control, n = 3
Method: (§1) The hDPCs were obtained from the Seoul National University Dental Hospital, and the experimental protocol was accepted by the Institutional Review Board of the Seoul National University (S‐D20140007). Informed consent was obtained from patients. Human DPCs were isolated and used in an in vitro experiment as described previously (Jung et al., [2011]). Human DPCs were cultured in minimum essential medium α (Gibco BRL, 12571063) supplemented with 10% heat‐inactivated fetal bovine serum (FBS; Gibco BRL, 16000044) and antibiotic‐antimycotic (Gibco BRL, 15240062) at 37°C in an atmosphere with 5% CO2. The cells were then treated with recombinant CPNE7 protein (rCPNE7, 100 ng/mL; Origene, TP306428) or CPNE7‐derived peptide (CPNE7‐DP, 10 μg/mL). After oxidative stress‐induced DNA damage using Hydrogen Peroxide Solution (H2O2; Merck, H1009) rCPNE7 was treated after replacement with a new culture medium (α‐MEM).
The morphologic change of hDPCs treated with or without rCPNE7 was measured by live‐cell imaging (n = 3, each group). After being treated with rCPNE7 for 24 h, the cells were differentiated for 7 days and scanned for 2 days. Bright‐field images of the cells were acquired using a confocal laser scanning microscopy system (LSM980, Zeiss, Germany). […] Timelapse images collected from a single Z plane were recorded at 8‐min intervals.

hDPCs [2] = assay: Mouse subcutaneous ex vivo transplantation (HA/TCP, PCL), hDPCs; set-up: species or system human cells in immunocompromised mice; conditions: hDPCs + 100 mg HA/TCP with rCPNE7 100 ng/mL in PCL, 6 weeks, vs control, n = 3
Method: (§2) The hDPCs, ADSCs, BMSCs, GFs, and PDLSCs (2 × 10^6) were mixed with 100 mg of hydroxyapatite/tricalcium phosphate ceramic powder (Zimmer) alone or with rCPNE7 (100 ng/mL) in an 0.5% fibrin gel. The poly ε‐caprolactone (PCL: Mw 80,000, Sigma–Aldrich, Oakville, ON, Canada) was wrapped around the mixed cells and transplanted subcutaneously into immunocompromised mice (NIHbg‐nu‐xid; Harlan Laboratories) for 6 weeks (n = 3, each group).

[3] = tested on: gingival fibroblasts (GFs); assay: Mouse subcutaneous ex vivo transplantation (HA/TCP, PCL), GFs; type: in vivo, immunocompromised mice
Method: as §2
(§3) Figure S1. (A) The gingival fibroblasts (GFs) or (B) periodontal ligament stem cells (PDLSCs) were mixed with 100㎎ of hydroxyapatite/tricalcium phosphate (HA) particles alone (control) or with rCPNE7 in a poly ε-caprolactone (PCL) spaces and transplanted subcutaneously into immunocompromised mice for 6 weeks. White arrows indicate newly formed mineralized tissues. Representative immunofluorescence images of DSP (red) were observed (n=3). DAPI (blue) was counterstained to indicate the nucleus. Scale bars: 50㎛.

[4] = tested on: periodontal ligament stem cells (PDLSCs); assay: Mouse subcutaneous ex vivo transplantation (HA/TCP, PCL), PDLSCs; type: in vivo, immunocompromised mice
Method: as §2, §3

[5] = tested on: adipogenic stem cells (ADSCs); assay: Mouse subcutaneous ex vivo transplantation (HA/TCP, PCL), ADSCs; type: in vivo, immunocompromised mice; conditions: adipose stem cells, rCPNE7 treatment
Method: as §2

[6] = tested on: bone marrow stem cells (BMSCs); assay: Mouse subcutaneous ex vivo transplantation (HA/TCP, PCL), BMSCs; type: in vivo, immunocompromised mice; conditions: rCPNE7 treatment
Method: as §2

hDPCs [7] = assay: Senescence β-galactosidase (SA-β gal) staining of H2O2-treated hDPCs; type: cell-based, human
Method: as §1
Human DPCs were fixated with Fixative Solution (Cell Signaling Technology, #9860) at room temperature for 15 min. Rinsed twice with PBS, the cells were then stained with β‐Galactosidase Staining Solution (Cell Signaling Technology, #9860) at 37°C overnight in a dry incubator (no CO2). Cells were observed using light microscopy (Primovert, Zeiss, Germany) (n = 3, each group).

hDPCs [8] = assay: Live-cell imaging of intracellular ROS (DCFDA); type: cell-based, human; conditions: rCPNE7 treatment 15 min after H2O2 treatment, n = 3
Method: Human DPCs were stained with DCFDA‐cellular ROS assay kit (Abcam, ab113851) for 40 min at 37°C in a humidified environment at 5% CO2. Then, live cell imaging was performed with a filter set appropriate for fluorescein (FITC) (n = 3, each group). Low light conditions were maintained to avoid photobleaching and photo‐oxidation of DCF.

hDPCs [9] = assay: γ-H2AX immunofluorescence in hDPCs; type: cell-based, human; conditions: rCPNE7 after 30 min of 1 mM H2O2, vs H2O2 only
Method: Human DPCs and tissue sections were treated with phosphate‐buffered saline (PBS) and 0.5% Triton X‐100 for permeabilization. After washing and blocking, cells and tissue samples were incubated overnight at 4°C with γ‐H2AX (1:100, Cell Signaling Technology, #9718) and CPNE7 (1:100) in blocking buffer (PBS and 2% bovine serum albumin). Subsequently, FITC‐conjugated anti‐rabbit secondary antibody (1:500) or Cy3‐conjugated anti‐rabbit (1:500) was applied. Cells were visualized using confocal microscopy (LSM980, Zeiss, Germany). The chromosomal DNA in the nucleus was stained with 4′,6‐diamidino‐2‐phenylindole (DAPI). The microtubules were detected using α‐TUBULIN antibodies (1:1000; Santa Cruz), and F‐ACTIN was stained with Alexa Fluor 488 or rhodamine‐conjugated phalloidin (Invitrogen). Flag‐tagged rCPNE7 was detected using Flag‐antibodies (1:500; Sigma–Aldrich), and TAU was detected by TAU antibodies (1:100; CUSABIO). Immunofluorescence staining of TAU, F‐ACTIN, and α‐TUBULIN was analyzed using the IMARIS cell imaging software (Bitplane) (n = 3, each group).

hDPCs [10] = assay: γ-H2AX / P21 western blot in H2O2-treated hDPCs; type: cell-based, human; conditions: H2O2 + rCPNE7, after 48 h, vs H2O2 only
Method: Cellular proteins (30 μg) were separated by 10% or 15% sodium dodecyl sulfate‐polyacrylamide gel electrophoresis (SDS‐PAGE) and transferred to polyvinylidene fluoride (PVDF) membranes. The PVDF membranes were blocked for 1 h with 5% nonfat dry milk in Tris‐buffered saline containing 0.1% Tween 20 (TBS‐T) and incubated overnight at 4°C with the primary antibody diluted in TBS‐T (1:5000). After washing, membranes were incubated for 1 h with the appropriate secondary antibodies. Labeled protein bands were detected under an enhanced chemiluminescence system (Amersham Biosciences/GE Healthcare). All reactions were performed in triplicate. Semi‐quantitative analyses were performed using Image J software (National Institute of Health, MD, USA) (n = 3, each group).

hDPCs [11] = assay: Comet assay; type: cell-based, human; conditions: 24 h, 1 mM H2O2 + rCPNE7, vs H2O2 only, n = 3
Method: Human DPCs were combined with Comet Agarose (Abcam, ab238544) at 1/10 ratio (v/v), mixed by pipetting, and immediately transferred onto the top of the Comer Agarose Base Layer Slide (Abcam, ab238544). Set horizontally, the slides were incubated at 4°C in the dark for 15 min, and placed in a small basin/container containing pre‐chilled Lysis Buffer (Abcam, ab238544). They were immersed in the buffer for 1 h at 4°C in the dark. After 1 h, aspiration of the Lysis Buffer from the container was done and replaced with a pre‐chilled Alkaline Solution (Abcam, ab238544), followed by electrophoresis chamber filled with the Alkaline Electrophoresis Solution. Voltage was applied to the chamber for 30 min at 1 volt/cm. The slides were then rinsed with pre‐chilled DI H2O and replaced with cold 70% Ethanol for 5 min. The slide was removed from the 70% Ethanol and allowed to air dry. Once the slide was completely dry, staining with Vista Green DNA Dye (Abcam, ab238544) was done at room temperature for 15 min. Cells were visualized using confocal microscopy (LSM980, Zeiss, Germany) (n = 3, each group).

hDPCs [12] = assay: RNA-sequencing of rCPNE7-treated hDPCs; type: cell-based, human; conditions: n = 3
Method: The isolated RNA (n = 3, each group) was shipped to Macrogen (Seoul, Korea) for the library preparation, sequencing, and analysis of data. The cDNA Library for sequencing was prepared using TruSeq Stranded mRNA LT Sample Prep Kit. Total RNA was randomly fragmented, converted to complementary DNA (cDNA), and amplified according to the manufacturer's protocol. The cDNA was then ligated to sequencing adapters. Sequencing was performed on Illumina's HiSeq2500 platform. HISAT2 was used for mapping trimmed reads to reference genome (UCSC mm10), and the transcript assembly was performed using StringTie. To identify differentially expressed genes (DEGs), the expression profile was calculated for each sample and normalized to FPKM. KEGG database and Gene Ontology were used to perform functional annotation and gene‐set enrichment analysis on DEGs for known gene annotation. Genes with |fc| 1.5 and independent T‐test raw p‐value <0.05 were counted as significant.

[13] = tested on: shCpne7-transfected hDPCs; assay: DNA damage rescue model in shCpne7-transfected hDPCs (western blot); type: cell-based, human; conditions: hDPCs treated after shCpne7 transfection; rCPNE7 100 ng/mL or CPNE7-DP 10 μg/mL
Method: as §1, with “(α‐MEM). […]” for “(α‐MEM).”
Cellular proteins (30 μg) were separated by 10% or 15% sodium dodecyl sulfate‐polyacrylamide gel electrophoresis (SDS‐PAGE) and transferred to polyvinylidene fluoride (PVDF) membranes. […] Labeled protein bands were detected under an enhanced chemiluminescence system (Amersham Biosciences/GE Healthcare). […] Semi‐quantitative analyses were performed using Image J software (National Institute of Health, MD, USA) (n = 3, each group).

hDPCs [14] = tested on: hDPCs
dentinal damage sites = conditions: treated onto dentinal damage sites; ref Lee et al., [2020]; cited from earlier work
Excerpt: However, little is known about how odontoblasts age and survive through the days beyond entering dormancy, which actually comprise the major part of their life span. Aging is defined as a gradual loss of physiologic tissue integrity and impaired function, ultimately leading to cell death. Aged pulp is characterized by lower cell population, pulp stem cell tiredness, and, overall, reduced responsiveness to external stimuli (Bernick & Nedelman, [1975]). It has been reported that one of the survival mechanisms of aging odontoblasts is autophagy, which involves degradation and turnover of cellular ...

B1: rCPNE7: recombinant CPNE7 protein (Origene, TP306428) (protein, UniProt Q9UBL6 1-633, looked up)
Copine-7: MSAGSERGAAATPGGLPAPCASKVELRLSCRHLLDRDPLTKSDPSVALLQQAQGQWVQVGRTEVVRSSLHPVFSKVFTVDYYFEEVQRLRFEVYDTHGPSGFSCQEDDFLGGMECTLGQPAQKWLLQVVMRVSVDVLGPAGHCAKHFLCCTESSHLARTGPSFLLRYDDLCLPWATAGAVRWWTCRGGHTQGWQIVAQKKVTRPLLLKFGRNAGKSTITVIAEDISGNNGYVELSFRARKLDDKDLFSKSDPFLELYRVNDDQGLQLVYRTEVVKNNLNPVWEAFKVSLSSLCSCEETRPLKCLVWDYDSRGKHDFIGEFSTTFEEMQKAFEEGQAQWDCVNPKYKQKRRSYKNSGVVVLADLKFHRVYSFLDYIMGGCQIHFTVAIDFTASNGDPRNSCSLHYINPYQPNEYLKALVSVGEICQDYDSDKRFSALGFGARIPPKYEVSHDFAINFNPEDDECEGIQGVVEAYQNCLPRVQLYGPTNVAPIISKVARVAAAEESTGKASQYYILLILTDGVVTDMADTREAIVRASRLPMSIIIVGVGNADFTDMQVLDGDDGVLRSPRGEPALRDIVQFVPFRELKNASPAALAKCVLAEVPKQVVEYYSHRGLPPRSLGVPAGEASPGCTP
- cellular process morphology [1]: elongation of a uni‐directional cellular process was observed
- odontoblast-like differentiation and dentin-like tissue-forming capacity ex vivo (hDPCs [2]): enhanced odontoblast‐like differentiation and dentin‐like tissue‐forming capacity
- amount of newly formed DSP-positive mineralized tissue ([3]; GFs + HA/TCP with rCPNE7 in PCL spaces, 6 weeks, vs control, n = 3): slightly greater amount
- odontoblastic differentiation upon treatment ([3]; GFs, rCPNE7 treatment): did not undergo odontoblastic differentiation
- amount of newly formed DSP-positive mineralized tissue ([4]; PDLSCs + HA/TCP with rCPNE7 in PCL spaces, 6 weeks, vs control, n = 3): slightly greater amount
- odontoblastic differentiation upon treatment ([4]; PDLSCs, rCPNE7 treatment): did not undergo odontoblastic differentiation
- odontoblastic differentiation upon treatment [5]: did not undergo odontoblastic differentiation
- odontoblastic differentiation upon treatment [6]: did not undergo odontoblastic differentiation
- progress of cellular senescence (SA-β gal) (hDPCs [7]; hDPCs in growth media containing rCPNE7 for 72 h after oxidative stress (1 mM H2O2) for an hour, vs control): progressed more slowly than the control
- number of SA-β gal-positive dental pulp cells (hDPCs [7]; hDPCs passage 3, 1 mM H2O2 + rCPNE7, an hour later, vs H2O2 only, n = 3): significantly decreased
- intracellular ROS level (DCFDA fluorescence) (hDPCs [8]): gradually decreased back to the normal level
- accumulation of DNA damage (γ-H2AX immunofluorescence) (hDPCs [9]): rarely observed
- protein expression level of γ-H2AX (western blot) (hDPCs [10]): hardly detected
- length of comet tail (fragmented DNA) (hDPCs [11]): much shorter
- mRNA expression levels of histone and chromatin-related genes (hDPCs [12]): significantly increased
- expression level of γ-H2AX (western blot) [13]: evidently diminished
- cell viability (WST-8) (hDPCs [14]; rCPNE7 after 30 min treatment of 1 mM or 2 mM H2O2, 48 h, vs H2O2 only): cell viability was higher
- cell-to-cell contact (light microscopy) (hDPCs [14]; rCPNE7 after 30 min treatment of H2O2, vs H2O2 only): more organized
- dentin formation at dentinal damage sites (dentinal damage sites): tertiary dentin formation of tubular nature
